This note sets out measurements from article PMC3462199, “Recombinant Adiponectin Does Not Lower Plasma Glucose in Animal Models of Type 2 Diabetes” (PLoS ONE, 2012).

Usually stoichiometry N stands for the number of molecules, sites or subunits per partner or assembly.

Series [1] can be described thus: not stated; oligomeric form and share of trimer/hexamer/HMW in the purified batch as listed in Table 1; the table does not say whether from analytical SEC (Figure 1A) or AF4-MALS.
Series [2] deals with Murine globular adiponectin (mgAd) (murine). The description is as above.
The next series has as its target Q15848. The description is as above.
Series [3] deals with the molecule itself. The series is described as above.
Series [4] concerns the molecule itself. The series can be described thus: AF4-MALS; purified batch; 20 mM Tris-HCl pH 7.4, 100 mM NaCl, 1 mM CaCl2; self-association, size of the oligomer.
The next series concerns the target Q60994. Put plainly: not stated; oligomeric form and share of trimer/hexamer/HMW in the purified batch as listed in Table 1; the table does not say whether from analytical SEC (Figure 1A) or AF4-MALS.
The target in series [5] is T1, C39S version of full length murine adiponectin (C39S mAd) (murine), Q60994.
T1 chain: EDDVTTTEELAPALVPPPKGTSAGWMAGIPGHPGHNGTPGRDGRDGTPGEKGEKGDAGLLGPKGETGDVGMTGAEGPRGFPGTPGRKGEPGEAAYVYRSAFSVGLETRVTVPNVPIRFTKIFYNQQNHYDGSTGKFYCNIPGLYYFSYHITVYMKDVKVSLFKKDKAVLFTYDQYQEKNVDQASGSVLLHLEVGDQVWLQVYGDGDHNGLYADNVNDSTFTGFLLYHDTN
The series is described as above. The following applies: remark: other sources report otherwise.

Positions count from the first letter of the chain named. Names and notes keep the numbering of the source. Values joined by “and” are separate entries in the source; they are usually repeats but may differ in a detail not shown here. Equal values may be shown once.

As for Murine globular adiponectin (mgAd), in series [1], the % HMW was found to be 0%.

In series [2], “Murine globular adiponectin (mgAd) (domain or fragment)” showed a % hexamer of -0% and a % trimer of 100%.

B1: Full length human adiponectin (hAd), high molecular weight form (protein)
chain: ETTTQGPGVLLPLPKGACTGWMAGIPGHPGHNGAPGRDGRDGTPGEKGEKGDPGLIGPKGDIGETGVPGAEGPRGFPGIQGRKGEPGEGAYVYRSAFSVGLETYVTIPNMPIRFTKIFYNQQNHYDGSTGKFHCNIPGLYYFAYHITVYMKDVKVSLFKKDKAMLFTYDQYQENNVDQASGSVLLHLEVGDQVWLQVYGEGERNGLYADNDNDSTFTGFLLYHDTN
The molecule B1 gave a % HMW in the series with Q15848 of 98%.

B2: Full length human adiponectin (hAd), high molecular weight form (natural protein, UniProt Q15848 19-244, looked up)
chain: B1 chain
modifications: detected proline hydroxylations at 71, 76, 95; detected lysine hydroxylations at 33, 65, 68, 77, 101 (glycosylated hydroxylysyl)
notes: human adiponectin; coding region amplified from Human Adipocyte Marathon Ready cDNA; the original signal peptide was replaced by the human CD33 signal peptide and the protein was secreted; also called HMW hAd; HMW adiponectin; source: HMW form isolated; copies: 18
With B2, in series [3], the “% hexamer” value was 2% and the “% trimer” value turned out to be 0%. Also, the “stoichiometry N” value in series [4] stood at 18.

B3: Mouse globular adiponectin with an amino terminal FlagTag (FLAG-mgAd) (domain or fragment, murine, UniProt Q60994 109-247, looked up)
chain: EAAYMYRSAFSVGLETRVTVPNVPIRFTKIFYNQQNHYDGSTGKFYCNIPGLYYFSYHITVYMKDVKVSLFKKDKAVLFTYDQYQEKNVDQASGSVLLHLEVGDQVWLQVYGDGDHNGLYADNVQDSTFTGFLLYHDTN
notes: N233Q to prevent N-glycosylation; the methods mention only N233Q; Total mass printed: 17054 Da; also called FLAG tagged mouse globular adiponectin; source: S. cerevisiae ME1719, supernatant, purified (Q Sepharose FF, Superdex 200)
In the case of B3, in series [3], the “% hexamer” value was 15% and the “% trimer” value stood at 85%. In the series with Q60994, this molecule displayed a % HMW of 0%.

B4: C39S version of full length murine adiponectin (C39S mAd), Q60994 18-247 (natural protein)
chain: T1 chain
modifications: here or on the partner: detected proline hydroxylations at 47, 50, 56, 65, 79; detected lysine hydroxylations at 68, 71, 80, 104; detected proline hydroxylations at 47, 50, 56, 65, 79; detected lysine hydroxylations at 68, 71, 80, 104
Consider B4, for which, in series [5], the % hexamer is -0%, the % trimer was 100% and the stoichiometry N is 3.

B5: Full length murine adiponectin (mAd) (protein)
chain: T1 chain with S22C
Turning to B5, in the series with Q60994, the % HMW turned out to be 1%.

B6: C39S version of full length murine adiponectin (C39S mAd) (protein)
chain: T1 chain
The molecule B6 displayed a % HMW in the series with Q60994 of 0%.

B7: Full length murine adiponectin (mAd) (natural protein, UniProt Q60994 18-247, looked up)
chain: T1 chain with S22C
modifications: detected proline hydroxylations at 65, 79; detected lysine hydroxylations at 36, 68, 71, 80, 104
notes: murine adiponectin; coding region amplified from a mouse spleen cDNA library; the original signal peptide was replaced by the human CD33 signal peptide and the protein was secreted; The forward primer begins with catcatcat (three His codons) followed by gcc gaa gat gac gtt (A E D D V); Batch is a mixture of trimer and hexamer
For the molecule B7, in series [3], the “% hexamer” value was found to be 53%; the “% trimer” value was 46%; the “stoichiometry N” value was 3 and 6.
